Results taken from publication PMC2735620.

Biological target: Gαi/13 (N-terminally hexahistidine tagged chimera), AlF4−-activated
Test: flow cytometry protein interaction assay

Ki [µM]	Binder
0.02	LARG RH/DH/PH-F1098D (domain or fragment) SPSTRIAPHIIGAEDDDFGTEHEQINGQCSCFQSIELLKSRPAHLAVFLHHVVSQFDPATLLCYLYSDLYKHTNSKETRRIFLEFHQFFLDRSAHLKVSVPDEMSADLEKRRPELIPEDLHRHYIQTMQERVHPEVQRHLEDFRQKRSMGLTLAESELTKLDAERDKDRLTLEKERTCAEQIVAKIEEVLMTAQAVEEDKSSTMQYVILMYMKHLGVKVKEPRNLEHKRGRIGFLPKIKQSMKKDKEGEEKGKRRGFPSILGPPRRPSRHDNSAIGRAMELQKARHPKHLSTPSSVSPEPQDSAKLRQSGLANEGTDAGYLPANSMSSVASGASFSQEGGKENDTGSKQVGETSAPGDTLDGTPRTLNTVFDFPPPPLDQVQEEECEVERVTEHGTPKPFRKFDSVAFGESQSEDEQFENDLETDPPNWQQLVSREVLLGLKPCEIKRQEVINELFYTERAHVRTLKVLDQVFYQRVSREGILSPSELRKIFSNLEDILQLHIGLNEQMKAVRKRNETSVIDQIGEDLLTWFSGPGEEKLKHAAATFCSNQPFALEMIKSRQKKDSRFQTFVQDAESNPLCRRLQLKDIIPTQMQRLTKYPLLLDNIAKYTEWPTEREKVKKAADHCRQILNYVNQAVKEAENKQRLEDYQRRLDTSSLKLSEYPNVEELRNLDLTKRKMIHEGPLVWKVNRDKTIDLYTLLLEDILVLLQKQDDRLVLRCHSKILASTADSKHTFSPVIKLSTVLVRQVATDNKALDVISMSDNGAQIYELVAQTVSEKTVWQDLICRMAASVKEQS
0.54	LARG RH/DH/PH-E354K (domain or fragment) SPSTRIAPHIIGAKDDDFGTEHEQINGQCSCFQSIELLKSRPAHLAVFLHHVVSQFDPATLLCYLYSDLYKHTNSKETRRIFLEFHQFFLDRSAHLKVSVPDEMSADLEKRRPELIPEDLHRHYIQTMQERVHPEVQRHLEDFRQKRSMGLTLAESELTKLDAERDKDRLTLEKERTCAEQIVAKIEEVLMTAQAVEEDKSSTMQYVILMYMKHLGVKVKEPRNLEHKRGRIGFLPKIKQSMKKDKEGEEKGKRRGFPSILGPPRRPSRHDNSAIGRAMELQKARHPKHLSTPSSVSPEPQDSAKLRQSGLANEGTDAGYLPANSMSSVASGASFSQEGGKENDTGSKQVGETSAPGDTLDGTPRTLNTVFDFPPPPLDQVQEEECEVERVTEHGTPKPFRKFDSVAFGESQSEDEQFENDLETDPPNWQQLVSREVLLGLKPCEIKRQEVINELFYTERAHVRTLKVLDQVFYQRVSREGILSPSELRKIFSNLEDILQLHIGLNEQMKAVRKRNETSVIDQIGEDLLTWFSGPGEEKLKHAAATFCSNQPFALEMIKSRQKKDSRFQTFVQDAESNPLCRRLQLKDIIPTQMQRLTKYPLLLDNIAKYTEWPTEREKVKKAADHCRQILNYVNQAVKEAENKQRLEDYQRRLDTSSLKLSEYPNVEELRNLDLTKRKMIHEGPLVWKVNRDKTIDLYTLLLEDILVLLQKQDDRLVLRCHSKILASTADSKHTFSPVIKLSTVLVRQVATDNKALFVISMSDNGAQIYELVAQTVSEKTVWQDLICRMAASVKEQS
